# According to the nanobody polyreactivity screen of Harvey et al. (2022):
# Test: yeast display, Sf9 membrane polyspecificity reagent, FACS + sequencing; frameworks hold sequencing errors
# Outline: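 Nanobodies came from a synthetic yeast display library in Saccharomyces cerevisiae BJ5465, induced with galactose for 36–48 hours and stained for 1 hour at 4 °C with 10% biotinylated, detergent-solubilized Sf9 membrane reagent. Cells were enriched on streptavidin microbeads and then FACS-sorted, with low and high (top ~1%) gates set on anti-HA fluorescence for expression and streptavidin fluorescence for reagent binding. Each polyreactivity label reflects the gate a clone came from. Genes were amplified by colony PCR, sequenced by MiSeq 2 × 250 and filtered by CDR length.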
row,Sequence,polyreactivity (PSR sort gate)
1,QVQLVESGGGLVQAGGSLRLSCAASGYTLGSYAMGWYRQAPGKERELVATITWGGGSTDYADSVKGRFTISRDNAKNTVYLQMNSLKPEDTAVYYCAAEDDSYDVEGSLYYWGQGTQVTVSS,low polyreactivity
2,QVQLVESGGGLVQAGGSLRLSCAASGSISVLNAMGWYRQAPGKERELVAAISRSGTRTYYADSVKGRFTLSRDNAKNTVYLQMNSLKPEDTAVYYCNALHRARLFGHYPYESWGQGTQVTVSS,high polyreactivity
3,QVQLVESGGGLVQAGGSLRLSCAASGSTFTYNAMGWYRQAPGKERELVASISSGTTTYYADSVKGRFTISRDNAKNTVYFQMHSLKPEDTAVYYCAVDSWSRVQGWLAHNYDYWGQGTQVTVSS,low polyreactivity
4,QVQLVESGGGLVQAGGSLRLSCAASGRIFGINAMGSYRQAPGKERELVAAINWSGGSTYYADSVKGRFTISRDNAKNTVYLQMNSLKPEDTAVYYCAAQKYKRVGYWGQGTQVTVSS,high polyreactivity
5,QVQLVESGGGLVQAGGSLRLSCAASGSIFRGYAMGWYRQAPGKERELVAAITKIGASTYYADSVKGRFTISRDNAKNTVYLQMYSLKPEDTAVYYCNKDRGITPYRAYWGMDYWGQGTQVTVSS,low polyreactivity
6,QVQLVESGGGLVQAGGSLRLSCAASGFIFAHNAMGWYRQAPGKVRELVAAISWGSGSTYYADSVKGRFTISRDNAKITVYLQMNSLKPEDTAVSYCAARAVRYYAWVRGGWTSFDYWGQGTQVTVSS,high polyreactivity
7,QVQLVESGGGLVQAGGSLRLSCAASGFIFYTYAMGWSRLAPGKEREFVASISKSGGRTYYADSVKRRFTMSRDNAKNTVYLQMISLKPEVTAVYYCNAYRSTHFFSYRDDYWGQGTQVTVSS,high polyreactivity
8,QVQLVESGGGLVQAGGSLRLSCAASGSTFYTNAMGWYRQAPGKERELVAAISNAGSTYYADSVKGRFTISRDNAKNTVYLQMNSLKPEDTAVYYCAADPIGLSSLWFRYSVSDVDYWGQGTQVTVSS,low polyreactivity
9,QVQLVESGGGLVQAGGSLPLSCAASGRTIDHYAMGWYRQAPGKERELVAAITSGGSTYYADSVKGRFTISRDNAKNTVYLQMNSLKPEDTAVYYCNKDSSFWGYYIAQVNERDYWGQGTQVTVSS,low polyreactivity
10,QVQLVESGGGLVQAVGSLRLSCAASGSIFPVYAMGWYRQAPGKERELVADITYTTGSTYYADSVKRRFTISRDNAKNTFYLQMNSLKPEDTAVYYCAKDFGFQSDSWGQGTQVTVSS,low polyreactivity
11,QVQLVESGGGLVQAGGSLRLSCAASGFTFDGYAMGWYRQAPGKERELVAAISDSGDSTYYADSVKGRFTISRDNAKNTVYLQMNSLKPEDTAVYYCNADAYGTPEFTSYAVRYDYWGQGTQVTVSS,low polyreactivity
12,QVQLVESGGGLVQAGGSLRLSCAASGSTFWAYVMGWYRQAPGKERELVASISSGGSTNYADSVKGRFTISRDNAKNTVYLQMNSLKPEDTAVYYCAKRPYPYKYDYWGQGTQVTVSS,high polyreactivity
13,QVQLVESGGGLVQAGGSLRLSCAASGITFEVYAMGWYRQAPGKERELVAVITSVGSTNYADSVKGRFTISRDNAKNTVYLQMNSLKPEDTAVYYCASEKWTVRRFNPYTYYRYDYWGQGTQVTVSS,low polyreactivity
14,QVQLVESGGGLVQAGGSLRLSCAASGSIIYWYAMGWYRQAPGKERELVADISRGGITYYADSVKGRFTISRDNAKNTVYLQMNSLKPEDTAVYYCSKTHYGVQRLDSWGQGTQVTVSS,low polyreactivity
15,QVQLVESGGGLVQAGGSLRLSCAASGFIFRYYAMGWYRQAPGKERELVAAISRGGSTNYADSVKGRFTISRDNAKNTVYLQMNSLKPEDTAVYYCAARTVRARSKFEYWGQGTQVTVSS,high polyreactivity
16,QVQLVESGGGLVQAGGSLRLSCAASGSTFLINAMGWYRQAPGKERELVAAISRDGSTNYADSVKGRFTISRDNAKNTVYLQMNSLKPEDTAVYYCAAVQGISVGRQPGYDYDYWGQGTQVTVSS,low polyreactivity
17,QVQLVESGGGLVQAGGSLRLSCAASGFIFFAYAMGWYRQAPGKERELVAAISRTGGSTYYADSVKGRFTISRDNAKNTVYLEMNSLKPEDTAVYYCAAVVSRTYQWWTYDYWGQGTQVTVSS,high polyreactivity
